Molecular target: MART1 clone DMF4 TCR (includes the TCRvβ12 segment) expressed on SupT1 cells
Experiment: cell-based or functional assay

B1: Vβ12-targeting CAR (construct not specified for the experiment) (other)
VH: EVMLVESGGGLVKPGGSLKLSCAASGFTFRSYAMSWVRQTPEKRLEWVATISSGGSYTNYPDSVKGRFTISRDNAKNTLNLQMNSLRSEDTAMYYCARGYHGYLDVWGAGTTVTVSS
VL: DILLTQSPAFLSVSPGERVSFSCRASQSIGTSIHWYQQRTNGSPRLLIKYASESFSGIPSRFSGSGSGTDFTLSISSVESEDIADYYCQQSYSWPYTFGGGTKLEIK
Question: How did the “lysis of the target cell lines at three E:T ratios” value turn out when B1 was run?
Answer: ~100%

— patent US20230108300A1 (University of Pennsylvania, published 2023)
